# Experimental data published in US20260098102A1 (NATIONAL UNIVERSITY CORPORATION KOBE UNIVERSITY, published 2026).
# Where a chain is given by its changes, count along the chain named.
# T1: mouse SIRPA_NOD (mouse (NOD), UniProt P97797 32-513)
# T1 construct: FLAG-tagged (pFLAG V5-DEST), on 293α cells; also called NOD SCID
# T1 chain: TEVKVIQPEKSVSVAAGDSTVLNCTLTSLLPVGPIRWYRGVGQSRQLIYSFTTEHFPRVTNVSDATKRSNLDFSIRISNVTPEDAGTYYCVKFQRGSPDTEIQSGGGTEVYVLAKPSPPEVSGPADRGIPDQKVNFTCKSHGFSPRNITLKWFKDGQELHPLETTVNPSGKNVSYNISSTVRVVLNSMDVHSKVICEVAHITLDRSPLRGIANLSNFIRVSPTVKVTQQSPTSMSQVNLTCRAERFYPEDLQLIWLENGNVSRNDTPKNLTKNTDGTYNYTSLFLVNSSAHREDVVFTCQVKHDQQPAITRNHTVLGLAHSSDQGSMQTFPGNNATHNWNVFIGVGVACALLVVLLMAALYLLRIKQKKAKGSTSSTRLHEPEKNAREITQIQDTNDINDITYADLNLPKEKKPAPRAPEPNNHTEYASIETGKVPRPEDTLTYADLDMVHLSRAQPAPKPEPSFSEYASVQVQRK
# B1: humanized anti-SIRPA antibody hD13_H1L3 (antibody, human IgG4 S228P, kappa, F234A L235A, V domains shown)
# VH: QVQLVESGGGVVQPGRSLRLSCAASGFTFSDYGMIWVRQAPGKGLEWVASISSSSSYIYYADSVKGRFTISRDNSKNRLYLQMNSLRAEDTAVYYCARRYYGFNYPFDYWGQGTMVTVSS
# VL: DTQLTQSPSSLSASVGQRVTITCGASKSVRTYMHWYQQKPGKQPKLLIYSASNLEAGVPSRFSGSGSGTDFTLTISSLQPEDFATYYCQQSNEPPYTFGQGTKLEIKR
# notes: hH1 heavy chain (IgG4proFALA) and hL3 kappa light chain; also called hD13_HIL3; HIL3 antibody
# B2: humanized anti-SIRPA antibody hD13_H2L3 (antibody, human IgG4 S228P, kappa, F234A L235A, V domains shown)
# VH: B1 VH with Q1E, R78T
# VL: B1 VL
# notes: hH2 heavy chain (IgG4proFALA) and hL3 kappa light chain; also called H2L3 antibody
# B3: humanized anti-SIRPA antibody hD13_H1L4 (antibody, human IgG4 S228P, kappa, F234A L235A, V domains shown)
# VH: B1 VH
# VL: DTVLTQSPDSLAVSLGQRATINCGASKSVRTYMHWYQQKPGQQPKLLIYSASNLEAGVPSRFSGSGSGTDFTLTISSLQAEDVAVYYCQQSNEPPYTFGQGTKVEIKR
# notes: hH1 heavy chain (IgG4proFALA) and hL4 kappa light chain; also called hD13_HIL4; hD13_HIL4h
# B4: humanized anti-SIRPA antibody hD13_H2L2 (antibody, human IgG4 S228P, kappa, F234A L235A, V domains shown)
# VH: B1 VH with Q1E, R78T
# VL: B1 VL with D1A, T2I, Q43A
# notes: hH2 heavy chain (IgG4proFALA) and hL2 kappa light chain; also called H2L2 antibody
# B5: human chimeric anti-SIRPA antibody cD13 (antibody, human IgG4 S228P, kappa, F234A L235A, V domains shown)
# VH: EVQLVESGGGLVQPGRSLKLSCLASGFTFSDYGMIWVRQAPGKGLEWVASISSSSSYIYYADTVKGRFTISRENAKNTLFLHMTSLRSEDTALYYCARRYYGFNYPFDYWGQGVMVTVSS
# VL: DTVLTQSPALAVSLGQRVTISCGASKSVRTYMHWYQQKSGQQPKLLIYSASNLEAGVPSRFSGSGSGTDFTLTIDPVEADDIANYYCQQSNEPPYTFGAGTKLELKR
# notes: Human IgG4proFALA heavy chain, human kappa light chain; also called cD13 (IgG4pf); human chimeric antibody D13
# Biological target: T2, SIRPA_V1_IgV (human, UniProt P78324 31-149)
# T2 construct: Secreted recombinant protein from FreeStyle 293F cells
# Test: SPR Biacore T200, antibody captured on anti-human IgG (Fc), SIRPA_V1_IgV as analyte, 1:1 model
# Protocol: The dissociation constants of hD13_HIL3, hD13_HIL4, hD13_H2L2, and hD13_H2L3 prepared in Example 7 against human SIRPA_V1_IgV and monkey SIRPA_ECD prepared in Example 1 were measured by a capture method of capturing a humanized antibody as a ligand to an Anti-Human IgG (Fc) antibody immobilized using Human Antibody Capture Kit (GE Healthcare Bioscience Corp.) and measuring an antigen as an analyte, using Biacore T200 (GE Healthcare Bioscience Corp.). HBS-EP+ (GE Healthcare Bioscience Corp.) was used as a running buffer, and CM5 (GE Healthcare Bioscience Corp.) was used as a sensor chip. Onto the chip, 1 μg/mL humanized antibody was added at 10 μL/min for 60 seconds, and then a serially diluted solution (0.5 to 8 μg/mL) of human SIRPA protein or a serially diluted solution (1 to 16 μg/mL) of monkey SIRPA protein was added as an antigen at a flow rate of 30 μL/min for 120 seconds, and subsequently the dissociation phase for 600 seconds was monitored. As a regenerant, 3 M magnesium chloride (GE Healthcare Bioscience Corp.) was added at a flow rate of 20 μL/min for 30 seconds. For data analysis, a binding rate constant (ka), a dissociation rate constant (kd), and a dissociation constant (KD; KD=kd/ka) were calculated using a 1:1 binding model.
# T2 sequence (P78324 other isoform, or with tags, fused parts or gaps limits assumed): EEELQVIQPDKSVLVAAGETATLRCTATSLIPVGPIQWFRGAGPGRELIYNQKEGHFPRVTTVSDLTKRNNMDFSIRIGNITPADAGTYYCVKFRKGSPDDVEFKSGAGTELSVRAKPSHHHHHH
row,Binder,Kd
1,B1,0.0785 nM
2,B2,0.0859 nM
3,B3,0.107 nM
4,B4,0.131 nM

# Biological target: T3, human SIRPA_V3 (human, UniProt P78324 31-504)
# T3 construct: FLAG-tagged (pFLAG V5-DEST), on 293α cells; also called human SIRPA Variant 3
# Test: cell-based ELISA on 293α cells expressing FLAG-tagged SIRPA_V3; Abs 490 normalized to FLAG tag [iii]
# Protocol: (§1) The 293a cells, described in Example 1)-6, were prepared at 5× 10⁵ cells/mL in a 10% FBS-containing DMEM medium. pFLAG V5-DEST-SIRPA_V1-V10, pFLAG V5-DEST-monkey SIRPA, pFLAG V5-DEST-mouse SIRPA, or pFLAG V5-DEST was introduced into the cells using Lipofectamine LTX (Invitrogen), and 100 μL each was aliquoted to a 96-well plate (Corning Incorporated) and cultured overnight in a 10% FBS-containing DMEM medium at 37° C. under a 5% CO₂ condition. The obtained introduced cells were used for cell-based ELISA in a state that they adhered. After the culture supernatant was removed, 50 μL per well of hD13_HIL3, hD13_HIL4h, hD13_H2L2, hD13_H2L3, or cD13 prepared in Examples 6 and 7 or a control antibody was added to each of various SIRPA genes-introduced cells at a final concentration of 0 to 10,000 ng/ml, and the mixture was allowed to stand at 4° C. for one hour. Thereafter, binding to human SIRPA was evaluated in the same manner as in Example 5-1.
# T3 sequence (P78324 other isoform, or with tags, fused parts or gaps limits assumed): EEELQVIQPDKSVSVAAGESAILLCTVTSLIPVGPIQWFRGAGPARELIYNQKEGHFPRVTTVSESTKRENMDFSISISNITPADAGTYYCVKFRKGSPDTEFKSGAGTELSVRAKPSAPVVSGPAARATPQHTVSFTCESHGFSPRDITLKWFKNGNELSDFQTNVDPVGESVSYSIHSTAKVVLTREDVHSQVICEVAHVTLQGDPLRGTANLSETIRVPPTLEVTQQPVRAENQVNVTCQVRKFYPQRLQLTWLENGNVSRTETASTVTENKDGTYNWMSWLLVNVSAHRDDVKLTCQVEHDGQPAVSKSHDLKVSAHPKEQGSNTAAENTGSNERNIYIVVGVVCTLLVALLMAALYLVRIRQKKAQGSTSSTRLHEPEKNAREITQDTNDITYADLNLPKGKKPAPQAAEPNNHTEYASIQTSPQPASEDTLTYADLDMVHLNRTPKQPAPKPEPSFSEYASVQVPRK
row,Binder,EC50 (read off the curve)
1,B1,~0.03 µg/mL
2,B2,~0.04 µg/mL
3,B3,~0.03 µg/mL
4,B4,~0.04 µg/mL
5,B5,~0.04 µg/mL

# Biological target: T1, mouse SIRPA_NOD
# Test: cell-based ELISA on 293α cells expressing FLAG-tagged mouse SIRPA (NOD); Abs 490 normalized to FLAG tag [i]
# Protocol: as §1
row,Binder,binding result
1,B1,no binding (tested: 10000 ng/mL)
2,B2,no binding (tested: 10000 ng/mL)
3,B3,no binding (tested: 10000 ng/mL)
4,B4,no binding (tested: 10000 ng/mL)
5,B5,no binding (tested: 10000 ng/mL)

# Biological target: T4, human SIRPA_V2 protein (human, UniProt P78324 31-504)
# T4 construct: Expressed on 293α cells from pcDNA3.2 V5-DEST or pFLAG V5-DEST (FLAG-tagged) vectors; also called human SIRPA Variant 2; ECD variant (full-length, amino acids 1 to 504)
# Test: blocking cell-based ELISA: peroxidase-labeled CD47-Fc (1 µg/mL) on 293α cells expressing SIRPA_V2; y axis = CD47-Fc signal relative to no antibody (100)
# Protocol: After the culture supernatant of human SIRPA or monkey SIRPA expression vector-introduced 293α cells prepared in Example 8)-1 was removed, 50 μL per well of hD13_HIL3, hD13_HIL4h, hD13_H2L2, or hD13_H2L3 diluted with 5% FBS-containing PBS to a final concentration of 0 to 10,000 ng/ml was added to each of pcDNA3.2 V5-DEST-SIRPA_V1, pcDNA3.2 V5-DEST-SIRPA_V2, pcDNA3.2 V5-DEST-monkey SIRPA, and pcDNA3.2 V5-DEST-introduced 293α cells, immediately followed by addition of peroxidase-labeled CD47-Fc prepared with 5% FBS-containing PBS at 1 μg/mL, and the mixture was allowed to stand at 4° C. for one hour. Thereafter, the SIRPA-CD47 binding inhibitory activity was evaluated in the same manner as in 1)-6-3.
# T4 sequence (P78324 other isoform, or with tags, fused parts or gaps limits assumed): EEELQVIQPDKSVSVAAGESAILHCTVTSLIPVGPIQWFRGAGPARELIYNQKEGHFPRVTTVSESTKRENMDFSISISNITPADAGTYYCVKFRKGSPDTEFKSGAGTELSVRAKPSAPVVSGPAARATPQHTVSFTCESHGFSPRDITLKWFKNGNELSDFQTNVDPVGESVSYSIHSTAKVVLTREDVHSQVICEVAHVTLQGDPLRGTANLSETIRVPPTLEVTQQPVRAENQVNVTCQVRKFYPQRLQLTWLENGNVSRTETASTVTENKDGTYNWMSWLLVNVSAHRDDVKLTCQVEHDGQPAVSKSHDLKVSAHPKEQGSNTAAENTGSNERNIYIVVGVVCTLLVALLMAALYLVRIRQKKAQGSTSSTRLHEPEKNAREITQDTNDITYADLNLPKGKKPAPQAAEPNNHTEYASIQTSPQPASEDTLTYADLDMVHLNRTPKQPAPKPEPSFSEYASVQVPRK
row,Binder,IC50 (read off the curve)
1,B1,~0.6 µg/mL
2,B2,~0.7 µg/mL
3,B3,~0.7 µg/mL
4,B4,~0.8 µg/mL
5,B5,~0.8 µg/mL
